According to the supplement of paper PMC10724198:
± gives the standard deviation of the averaged measurements.

Columns and labels:
[1] = system: Saccharomyces cerevisiae; experiment: protein stability index of tFT-peptide fusion (C-terminal peptide) (PSI (0-1 scale)); higher = more stable (slower turnover)
Experimental: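 MPS profiling in S. cerevisiae of the tFT-X12 degron library: putative degron peptides plus stable controls, 12 aa, fused to the C-terminus of a sfGFP-mCherry timer. Cells are FACS-sorted into 8 mCherry/sfGFP bins and deep-sequenced. PSI runs from 0 (unstable) to 1 (stable). Backgrounds are wild type, das1Δ and doa10Δ at 30 °C, and wild type, das1Δ, cdc34-1 and cdc53-1 at 37 °C; 2-3 technical replicates each.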

[2] = system: Saccharomyces cerevisiae; experiment: as above; conditions: genetic background: wild type; temperature: 30 C
[3] = genetic background: cdc34-1, temperature: 37 C
[4] = genetic background: cdc53-1, temperature: 37 C
[5] = genetic background: das1 deletion, temperature: 30 C
[6] = genetic background: das1 deletion, temperature: 37 C
[7] = genetic background: doa10 deletion, temperature: 30 C
[8] = genetic background: wild type, temperature: 30 C
[9] = genetic background: wild type, temperature: 37 C
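Note: PSI is a weighted mean of sequencing reads over stability bins, variants kept only with over 10 reads, mCherry proximal and sfGFP distal, peptide attached via GGGS linker.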

| Sequence | protein stability index [1, 3] | protein stability index [1, 4] | protein stability index [1, 5] | protein stability index [1, 6] | protein stability index [1, 7] | protein stability index [1, 8] | protein stability index [1, 9] | protein stability index [2] |
| --- | --- | --- | --- | --- | --- | --- | --- | --- |
| CFATTCLRCKWV | 0.692 ± 0.038 | 0.738 ± 0.035 | 0.645 ± 0.033 | 0.739 ± 0.028 | 0.425 ± 0.011 | 0.459 ± 0.022 | 0.631 ± 0.027 | 0.484 ± 0.014 |
| FPLFCRIHLLCS | 0.138 ± 0.0083 | 0.157 ± 0.0044 | 0.2 ± 0.017 | 0.275 ± 0.0037 | 0.059 ± 0.02 | 0.0768 ± 0.011 | 0.0529 ± 0.0047 | 0.107 ± 0.0096 |
| GGGAGVVWVRLG | 0.5376 ± 0.0049 | 0.732 ± 0.022 | 0.642 ± 0.0084 | 0.7415 ± 0.0037 | 0.112 ± 0.0043 | 0.12 ± 0.027 | 0.166 ± 0.011 | 0.235 ± 0.035 |
| ASVCLNVIYQLV | 0.515 ± 0.024 | 0.451 ± 0.0053 | 0.288 ± 0.027 | 0.471 ± 0.013 | 0.1572 ± 0.0011 | 0.164 ± 0.018 | 0.222 ± 0.024 | 0.268 ± 0.036 |
| LTFRFGVNPYVF | 0.631 ± 0.034 | 0.748 ± 0.013 | 0.634 ± 0.019 | 0.752 ± 0.024 | 0.132 ± 0.0056 | 0.14 ± 0.023 | 0.283 ± 0.015 | 0.323 ± 0.011 |
| CFCVSVHVWLLM | 0.112 ± 0.028 | 0.238 ± 0.046 | 0.199 ± 0.038 | 0.342 ± 0.017 | 0.0493 ± 0.017 | 0.069 ± 0.018 | 0.105 ± 0.017 | 0.147 ± 0.04 |
| LCSVWVGIVLLC | 0.156 ± 0.011 | 0.236 ± 0.045 | 0.23 ± 0.02 | 0.313 ± 0.014 | 0.0996 ± 0.0034 | 0.0964 ± 0.013 | 0.107 ± 0.019 | 0.165 ± 0.047 |
| RKRTILVIIVVK | 0.181 ± 0.031 | 0.33 ± 0.042 | 0.234 ± 0.045 | 0.461 ± 0.05 | 0.186 ± 0.011 | 0.217 ± 0.046 | 0.395 ± 0.052 | 0.338 ± 0.061 |
| PLSNLCRVLTFI | 0.557 ± 0.078 | 0.639 ± 0.0012 | 0.575 ± 0.03 | 0.6394 ± 0.0024 | 0.361 ± 0.0071 | 0.369 ± 0.015 | 0.526 ± 0.0056 | 0.4608 ± 0.0029 |
| IHRSPLTLPLLV | 0.526 ± 0.021 | 0.584 ± 0.023 | 0.461 ± 0.031 | 0.5726 ± 0.005 | 0.406 ± 0.014 | 0.435 ± 0.019 | 0.5383 ± 0.0043 | 0.468 ± 0.08 |
